Experimental data published in the supplement of paper PMC7125110.
± gives the standard error. Fewer inactive variants are shown than the library holds.

B1: glmS ribozyme (parent)
chain: AUAAAAGCGCCAGAACUACAGAAAUGUAGUUGACGAGGAGGAGGUUUAUCGAAUUUUCGGCGGAUGCCUCCAAA

Variants of: B1
Assay: self-cleavage kobs at 10000 uM GlcN6P; higher = faster cleavage; RNA array
Settings: with glucosamine-6-phosphate
In short: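 Weighted Michaelis–Menten fits across concentrations supplied kcat and KM, based on kobs from one- or two-exponential decay fits to normalised per-tile medians. The data came from barcoded ribozyme variants transcribed in situ by E. coli RNA polymerase on sequenced MiSeq chips and tracked at 37 °C by a hybridised Cy3 probe. Glucosamine-6-phosphate (40 μM to 10 mM) in HEPES/KCl/Mg(OAc)2 buffer was flowed in.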

Variant	self-cleavage kobs at 10000 uM GlcN6P [s⁻¹]
A12G C50U A52G U69G C71A	3.23e-05 ± 1.6e-05
A12C A15U A52G	0.000174 ± 3.6e-05
G29U G41U U45C C70U	0.000108 ± 2.4e-05
A36C G43U U56C U57A C67G	< 1e-05
C16U G38U A52C C58A	< 1e-05
A6U G7C A14G U57C	< 1e-05
G7C U55G U56C U69A	< 1e-05
U47A A53G U55A G66C	0.000375 ± 5.9e-05
C8G A14G A33U	< 1e-05
A12G G13U U56G C61U C68G C70A	4.15e-05 ± 1.7e-05
G35C A42C C70U	< 1e-05
C10A C58G G60A U69G	5.7e-05 ± 1.6e-05
A15G G41A U54A	9.17e-05 ± 2.8e-05
A6U C10G G62U C67G C71G	2.87e-05 ± 1.4e-05
C16G G29A G32A	0.00144 ± 0.00032
A33G G37U U45C G62U	< 1e-05
A15C A39G A52G	0.000495 ± 8.8e-05
A12U A15G U46G	0.00932 ± 0.0019
G35C G37A C68G	4.58e-05 ± 2e-05
G40A C58U C67G C71G	< 1e-05
U30C U46C G59U	< 1e-05
C11U U31C U56C	9.92e-05 ± 2.1e-05
G37A G38A A42C G59U	< 1e-05
A39G C58G C67U	3.44e-05 ± 1.2e-05

Variant	self-cleavage kobs at 10000 uM GlcN6P [s⁻¹]
A64C U65G	4.42e-05 ± 1.1e-05
G35C C67U	0.00429
G29C A36C	< 1e-05
C11G U31G G35U A36U U49C A52U	< 1e-05
U30G U45A C67A	0.00242 ± 0.00045
C11G U31C A36C	< 1e-05
A15G U56G C68G	6.13e-05 ± 1.3e-05
A39G U46G	0.018 ± 0.0054
C8G G32U G43A C68G	< 1e-05
G13C A14G U69G	3.8e-05 ± 1.6e-05
A6U A36C C58G	< 1e-05
A12C U31A A42G A52G	0.000429 ± 9.6e-05
C16U A53G U69G	6.58e-05 ± 1.9e-05
A42C C61U C68U	< 1e-05
G13A A15U A53G G60U	< 1e-05
C8A G9A C10U A33G A36G A39U U47C C58A	< 1e-05
C11G A39U G44U A48C	< 1e-05
G40U G43C U65A	< 1e-05
C11G U30A U57G	< 1e-05
C16A U46C U55C	7.09e-05 ± 1.6e-05
G29A G66U C68U	3.63e-05 ± 1.6e-05
A6U G7U G13U U31C	< 1e-05
C16U A33G A39U	< 1e-05
A15G C67A C68A	5.65e-05 ± 1.7e-05

Variant	self-cleavage kobs at 10000 uM GlcN6P [s⁻¹]
A33C G37U	< 1e-05
A6G A33C A64G	< 1e-05
G41U G51U A53C	< 1e-05
A14C A33U A36U G60U G62C	< 1e-05
C34U G40U A42U	< 1e-05
A12C G13U C61U G62U	< 1e-05
A48U C67G	4.58e-05 ± 8.4e-06
C8A G29U A52U U55A C71G	< 1e-05
U31C U47G C70G	4.82e-05 ± 1.5e-05
C34U C58U	< 1e-05
G13C G35U U47C A48C C61G C70U	< 1e-05
A39G U56G C68U	0.00322 ± 0.0012
U31C G40C U54C U56A A64U	< 1e-05
G29U G38C G44A U47C	< 1e-05
A14U G37C A64C	< 1e-05
G43U G59C C68A	< 1e-05
A12U C16G G29A C67G	0.000109 ± 2.3e-05
A12U G13U G29C	3.79e-05 ± 1.5e-05
A39U U65A	0.00166 ± 0.00039
C16G G38C G40C U45A A52G	< 1e-05
U56G C58U C67A	3.62e-05 ± 1.5e-05
C10A G13U G44A	< 1e-05
U57C G62U	< 1e-05
U54G C58A C71U	0.000213 ± 4.7e-05

Variant	self-cleavage kobs at 10000 uM GlcN6P [s⁻¹]
A14C G40A U47C	0.000375 ± 7e-05
G44U A64U C67G	6.97e-05 ± 1.6e-05
C16A G29C A39C	0.000349 ± 6.1e-05
G9C U46G A53U U55G	< 1e-05
G13C U49A G60U C61A	< 1e-05
U49C C68A	< 1e-05
G38A G44U A53G	< 1e-05
C8G G9C G13U G37U A64G	< 1e-05
A36U G37C C50U U57A U69G	4.81e-05 ± 2.3e-05
C10U G38U U46A C58U	< 1e-05
G13A U57G	4.69e-05 ± 8.8e-06
C16A U30C C61G	< 1e-05
A12C C16A C67U	0.000164 ± 3.3e-05
C8A A39G G41U G66U C67G	< 1e-05
A15U C50U C58G	< 1e-05
C11U G38C C50A A53G G60C C68U	< 1e-05
A12C C61U G66U	< 1e-05
A48C G62U C67U C71G	< 1e-05
A15G G43A C58A	< 1e-05
C10A G29U U55G C68G	3.81e-05 ± 1.8e-05
A14G G32A A52G	0.000409 ± 0.00011
U45G U55C G60A G63U	< 1e-05
